Earlier results as cited in PMC2517140.

Target: gp41 trimeric inner core (Human immunodeficiency virus 1) (UniProt O70902)

Question: Which Kd does the source give for “gp41 outer-layer peptide (from UniProt O70902)” here?
Answer: 1 nM
